Source: the supplement of paper PMC9112550, “Optimization of the antimicrobial peptide Bac7 by deep mutational scanning” (BMC Biology, 2022)

Tested on: Escherichia coli TOP10
Experiment: shrunken log2 fold change of peptide-encoding DNA abundance (4.5 h post-induction vs induction); higher = less antimicrobial activity (less host growth inhibition)
Settings: time post-induction: 4.5 h; library: site-saturation at positions 5, 18, 19, 20
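Note: peptides expressed intracellularly from a pBAD plasmid library in pooled LB shake-flask culture, induced with 0.3% L-arabinose, DNA abundance read by NGS, three biological replicates, DESeq2 with apeglm shrinkage.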

Sequence	shrunken log2 fold change
RRIRCRPPRLPRPRPRPHIWPRP	-0.6
RRIRFRPPRLPRPRPRPWPEPRP	0.0713
RRIRRRPPRLPRPRPRPYWRPRP	0.0363
RRIRTRPPRLPRPRPRPKFCPRP	0.365
RRIRNRPPRLPRPRPRPWQWPRP	0.144
RRIRVRPPRLPRPRPRPYKAPRP	-0.0443
RRIRGRPPRLPRPRPRPRPSPRP	0.49
RRIRQRPPRLPRPRPRPMIVPRP	0.000655
RRIRMRPPRLPRPRPRPFIFPRP	-0.233
RRIRIRPPRLPRPRPRPIPCPRP	-0.00867
RRIRIRPPRLPRPRPRPDYQPRP	-0.611
RRIRLRPPRLPRPRPRPLYCPRP	-0.366
RRIRQRPPRLPRPRPRPGIPPRP	-0.0269
RRIRVRPPRLPRPRPRPMGAPRP	0.813
RRIRQRPPRLPRPRPRPLRKPRP	0.356
RRIRIRPPRLPRPRPRPLMPPRP	1.27
RRIRQRPPRLPRPRPRPISDPRP	0.0109
RRIRQRPPRLPRPRPRPGREPRP	0.221
RRIRWRPPRLPRPRPRPDFHPRP	-0.239
RRIRDRPPRLPRPRPRPMLGPRP	0.015
RRIRFRPPRLPRPRPRPWFTPRP	-0.574
RRIRLRPPRLPRPRPRPDYEPRP	-0.645
RRIRKRPPRLPRPRPRPFVKPRP	-0.00571
RRIRERPPRLPRPRPRPMFPPRP	-0.475
RRIRMRPPRLPRPRPRPSRCPRP	0.274

Sequence	shrunken log2 fold change
RRIRKRPPRLPRPRPRPYQTPRP	0.0193
RRIRQRPPRLPRPRPRPFEEPRP	-0.138
RRIRHRPPRLPRPRPRPTWMPRP	3.02
RRIRNRPPRLPRPRPRPPVHPRP	-0.148
RRIRQRPPRLPRPRPRPVITPRP	-0.414
RRIRCRPPRLPRPRPRPIFVPRP	-0.284
RRIRTRPPRLPRPRPRPFNMPRP	-0.692
RRIRWRPPRLPRPRPRPWEYPRP	-0.0716
RRIRKRPPRLPRPRPRPVQQPRP	0.368
RRIRLRPPRLPRPRPRPDWTPRP	0.000807
RRIRKRPPRLPRPRPRPSDHPRP	-0.239
RRIRERPPRLPRPRPRPYCPPRP	-1.59
RRIRMRPPRLPRPRPRPNSTPRP	0.0221
RRIRFRPPRLPRPRPRPRTNPRP	-0.179
RRIRERPPRLPRPRPRPPIPPRP	0.281
RRIRARPPRLPRPRPRPTERPRP	0.502
RRIRPRPPRLPRPRPRPTEGPRP	-0.0468
RRIRGRPPRLPRPRPRPGRKPRP	0.747
RRIRSRPPRLPRPRPRPLNYPRP	-0.166
RRIRDRPPRLPRPRPRPPYFPRP	-0.0365
RRIRHRPPRLPRPRPRPPIAPRP	-0.0868
RRIRNRPPRLPRPRPRPQSTPRP	-0.548
RRIRYRPPRLPRPRPRPYPMPRP	-0.744
RRIRQRPPRLPRPRPRPEYLPRP	-0.00804
RRIRHRPPRLPRPRPRPDQSPRP	-0.016

Sequence	shrunken log2 fold change
RRIRARPPRLPRPRPRPHYIPRP	-0.296
RRIRKRPPRLPRPRPRPPSHPRP	0.543
RRIRRRPPRLPRPRPRPCWPPRP	0.0865
RRIRIRPPRLPRPRPRPHPRPRP	0.192
RRIRFRPPRLPRPRPRPIDLPRP	-0.164
RRIRFRPPRLPRPRPRPGNCPRP	0.0888
RRIRNRPPRLPRPRPRPSDFPRP	-0.00477
RRIRQRPPRLPRPRPRPSTYPRP	-0.884
RRIRFRPPRLPRPRPRPLIMPRP	-0.352
RRIRLRPPRLPRPRPRPKKCPRP	-0.198
RRIRMRPPRLPRPRPRPNWMPRP	-0.0131
RRIRHRPPRLPRPRPRPRHEPRP	0.099
RRIRYRPPRLPRPRPRPMWRPRP	-0.27
RRIRNRPPRLPRPRPRPNLPPRP	-0.0407
RRIRIRPPRLPRPRPRPFGWPRP	0.468
RRIRPRPPRLPRPRPRPHDFPRP	-0.145
RRIRPRPPRLPRPRPRPHHMPRP	-0.778
RRIRMRPPRLPRPRPRPCKWPRP	0.0169
RRIRIRPPRLPRPRPRPRTEPRP	0.0225
RRIRFRPPRLPRPRPRPCAPPRP	-0.121
RRIRGRPPRLPRPRPRPSNSPRP	-0.203
RRIRIRPPRLPRPRPRPLTAPRP	0.00505
RRIRNRPPRLPRPRPRPDEHPRP	-0.415
RRIRARPPRLPRPRPRPCVNPRP	0.194
RRIRSRPPRLPRPRPRPQAMPRP	0.182

Sequence	shrunken log2 fold change
RRIRARPPRLPRPRPRPQKHPRP	0.0336
RRIRRRPPRLPRPRPRPKPIPRP	0.357
RRIRKRPPRLPRPRPRPENSPRP	-0.131
RRIRQRPPRLPRPRPRPMSLPRP	-0.13
RRIRRRPPRLPRPRPRPIVNPRP	-0.205
RRIRYRPPRLPRPRPRPKWFPRP	-0.87
RRIRYRPPRLPRPRPRPSTTPRP	-0.717
RRIRGRPPRLPRPRPRPHIMPRP	-0.0914
RRIRLRPPRLPRPRPRPVSCPRP	-0.0041
RRIRNRPPRLPRPRPRPDGYPRP	0.171
RRIRNRPPRLPRPRPRPHGIPRP	-0.154
RRIRTRPPRLPRPRPRPEMLPRP	0.0362
RRIRTRPPRLPRPRPRPTQEPRP	-0.0182
RRIRTRPPRLPRPRPRPMLAPRP	0.306
RRIRDRPPRLPRPRPRPMVIPRP	0.0392
RRIRHRPPRLPRPRPRPGTVPRP	-0.139
RRIRNRPPRLPRPRPRPKLTPRP	2
RRIRHRPPRLPRPRPRPCFHPRP	-0.48
RRIRIRPPRLPRPRPRPDTHPRP	-1.12
RRIRGRPPRLPRPRPRPKWNPRP	0.581
RRIRERPPRLPRPRPRPPTTPRP	0.322
RRIRTRPPRLPRPRPRPEHIPRP	-0.223
RRIRPRPPRLPRPRPRPGSAPRP	0.18
RRIRERPPRLPRPRPRPLMRPRP	0.839
RRIRWRPPRLPRPRPRPNHEPRP	-0.197

Sequence	shrunken log2 fold change
RRIRIRPPRLPRPRPRPLLMPRP	-0.489
RRIRMRPPRLPRPRPRPFNIPRP	-0.3
RRIRRRPPRLPRPRPRPFQKPRP	-0.0282
RRIRQRPPRLPRPRPRPTWIPRP	-0.057
RRIRRRPPRLPRPRPRPNVAPRP	0.304
RRIRCRPPRLPRPRPRPNYYPRP	-0.868
RRIRCRPPRLPRPRPRPPKLPRP	0.0685
RRIRMRPPRLPRPRPRPRYYPRP	-0.261
RRIRDRPPRLPRPRPRPIPEPRP	-0.138
RRIRIRPPRLPRPRPRPIDIPRP	-0.0353
RRIRVRPPRLPRPRPRPRKQPRP	0.383
RRIRKRPPRLPRPRPRPHFGPRP	-0.067
RRIRDRPPRLPRPRPRPVRGPRP	1
RRIRHRPPRLPRPRPRPWMFPRP	-0.119
RRIRWRPPRLPRPRPRPPWYPRP	-0.0946
RRIRQRPPRLPRPRPRPYICPRP	-0.102
RRIRSRPPRLPRPRPRPGIQPRP	0.0642
RRIRIRPPRLPRPRPRPWFCPRP	-0.322
RRIRHRPPRLPRPRPRPRAPPRP	0.741
RRIRLRPPRLPRPRPRPYSFPRP	-0.841
RRIRARPPRLPRPRPRPWYNPRP	-0.305
RRIRERPPRLPRPRPRPRLYPRP	-0.448
RRIRNRPPRLPRPRPRPDQEPRP	-0.00963
RRIRNRPPRLPRPRPRPYQIPRP	-0.0282
RRIRIRPPRLPRPRPRPITEPRP	-1.09

Sequence	shrunken log2 fold change
RRIRWRPPRLPRPRPRPRIFPRP	0.499
RRIRDRPPRLPRPRPRPTTKPRP	0.0962
RRIRFRPPRLPRPRPRPVEYPRP	-0.109
RRIRERPPRLPRPRPRPFQLPRP	0.053
RRIRGRPPRLPRPRPRPVICPRP	0.252
RRIRERPPRLPRPRPRPKGQPRP	0.132
RRIRERPPRLPRPRPRPGDIPRP	-0.072
RRIRIRPPRLPRPRPRPCRAPRP	-0.284
RRIRPRPPRLPRPRPRPERWPRP	0.56
RRIRSRPPRLPRPRPRPHYGPRP	-0.00176
RRIRQRPPRLPRPRPRPDVGPRP	-0.0428
RRIRWRPPRLPRPRPRPWCKPRP	-0.239
RRIRMRPPRLPRPRPRPYMFPRP	-0.493
RRIRWRPPRLPRPRPRPCFSPRP	-0.176
RRIRYRPPRLPRPRPRPHRTPRP	-0.527
RRIRKRPPRLPRPRPRPHHMPRP	-0.0738
RRIRERPPRLPRPRPRPPELPRP	0.102
RRIRERPPRLPRPRPRPVCHPRP	-0.309
RRIRCRPPRLPRPRPRPNADPRP	0.342
RRIRRRPPRLPRPRPRPSTYPRP	-0.418
RRIRSRPPRLPRPRPRPIYCPRP	-0.876
RRIRMRPPRLPRPRPRPGRQPRP	-0.00182
RRIRSRPPRLPRPRPRPWDPPRP	0.0317
RRIRYRPPRLPRPRPRPPPIPRP	0.0596
RRIRLRPPRLPRPRPRPGHEPRP	-0.0844
